The values that follow come from patent US20110243926A1 (published 2011).

The target of test [1] is T1, soluble E-selectin (control protein) (UniProt P16581 22-556, limits assumed).
T1 sequence (looked up): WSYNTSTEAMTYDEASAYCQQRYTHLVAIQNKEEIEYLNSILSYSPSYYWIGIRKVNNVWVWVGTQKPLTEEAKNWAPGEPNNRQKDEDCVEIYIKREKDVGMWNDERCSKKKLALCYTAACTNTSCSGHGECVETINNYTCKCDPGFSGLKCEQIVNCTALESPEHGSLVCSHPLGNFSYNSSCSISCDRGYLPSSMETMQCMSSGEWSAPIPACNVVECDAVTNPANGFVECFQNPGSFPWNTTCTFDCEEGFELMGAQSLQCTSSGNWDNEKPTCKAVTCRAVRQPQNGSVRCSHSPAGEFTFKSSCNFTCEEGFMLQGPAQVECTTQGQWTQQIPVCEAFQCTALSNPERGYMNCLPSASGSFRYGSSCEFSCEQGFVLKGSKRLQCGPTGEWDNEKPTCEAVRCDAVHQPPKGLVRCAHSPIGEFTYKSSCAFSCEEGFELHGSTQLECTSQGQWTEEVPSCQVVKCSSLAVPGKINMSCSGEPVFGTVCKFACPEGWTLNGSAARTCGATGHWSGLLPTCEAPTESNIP
In words: SPR (Biacore 3000), soluble E-selectin coupled to CM-5 chip, antibody injected. How it is done:
(§1) All experiments were performed on a Biacore 3000, at 25° C., using 20 mM MOPS, pH 7.5, 150 mM NaCl, 1.5 mM CaCl₂ and 0.005% Tween-20 as running buffer. Low densities of soluble P-selectin or soluble E-selectin (control protein) were covalently coupled on two different surfaces of a CM-5 chip according to the manufacturer's instructions. The coating density was selected with the aim of achieving a maximum binding response of 100-200 RUs.
(§2) Solutions containing G1aggr and the G1 mouse parental monoclonal antibody were diluted and injected onto the CM-5 chip at a flow rate of 30 μl/min for 4 minutes, followed by 3 min to allow for dissociation, at which time the bound antibody was eluted with a 10 μl injection of 10 mM Acetate pH 4.5, 100 mM NaCl at a flow rate of 10 μl/min. A series of concentrations of both antibodies were injected over the soluble P-selectin and the soluble E-selectin surfaces until saturating binding was observed.
There was no binding observed for either antibody to E-selectin.
(In general: Surface plasmon resonance follows binding to a sensor surface in real time, without labels.)

The next test concerns the target T2, soluble P-selectin (UniProt P16109 42-771, limits assumed).
T2 sequence (looked up): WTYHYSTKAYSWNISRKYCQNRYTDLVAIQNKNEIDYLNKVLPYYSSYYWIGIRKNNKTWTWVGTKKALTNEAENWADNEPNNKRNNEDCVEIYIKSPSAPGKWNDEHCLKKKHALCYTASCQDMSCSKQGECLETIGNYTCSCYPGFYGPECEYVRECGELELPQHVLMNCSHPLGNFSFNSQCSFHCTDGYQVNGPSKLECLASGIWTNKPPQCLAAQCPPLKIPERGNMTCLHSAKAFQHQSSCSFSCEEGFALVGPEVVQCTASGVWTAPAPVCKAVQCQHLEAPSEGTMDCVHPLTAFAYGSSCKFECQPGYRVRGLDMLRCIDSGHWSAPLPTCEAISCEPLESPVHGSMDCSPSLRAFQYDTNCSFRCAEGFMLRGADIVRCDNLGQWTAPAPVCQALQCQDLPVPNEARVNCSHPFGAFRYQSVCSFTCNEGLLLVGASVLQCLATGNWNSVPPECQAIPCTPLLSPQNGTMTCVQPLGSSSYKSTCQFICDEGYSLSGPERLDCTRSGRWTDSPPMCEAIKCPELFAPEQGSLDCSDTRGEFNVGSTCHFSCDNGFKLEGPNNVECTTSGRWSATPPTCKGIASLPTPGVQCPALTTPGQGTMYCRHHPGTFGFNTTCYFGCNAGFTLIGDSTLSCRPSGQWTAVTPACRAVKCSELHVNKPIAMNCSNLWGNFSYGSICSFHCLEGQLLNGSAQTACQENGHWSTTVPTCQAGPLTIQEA
In words: SPR (Biacore 3000, 25 C), soluble P-selectin coupled to CM-5 chip, antibody as analyte, bivalent analyte model. The procedure:
as §1, §2
The data were analyzed using the Biaevaluation software v 4.1. Sensorgrams from the different cycles were overlaid and the data for all curves of one antibody were simultaneously fitted to a Bivalent analyte model (see FIG. 5). The equilibrium affinity was calculated from the on-rates and off-rates obtained from this analysis.

B1: G1 mouse parental monoclonal antibody (antibody, V domains shown)
VH: QVQLQQSGPELVKPGALVKISCKASGYTFTSYDINWVKQRPGQGLEWIGWIYPGDGSIKYNEKFKGKATLTVDKSSSTAYMQVSSLTSENSAVYFCARRGEYGNYEGAMDYWGQGTTVTVSS
VL: DIVLTQDPASLAVSLGQRATISCKASQSVDYDGHSYMNWYQQKPGQPPKLLIYAASNLESGIPARFSGSGSGTDFTLNIHPVEEEDAATYYCQQSDENPLTFGTGTKLELK
notes: Mouse monoclonal antibody from a hybridoma; also called murine mAb G1; parental G1 murine antibody
Consider B1, for which, in test [1], the binding result was “no binding”. Besides, the Kd in the test with soluble P-selectin was 24.4 nM.

B2: humanized G1 antibody design labeled "aggressive" (G1aggr) (antibody, V domains shown)
VH: QVQLVQSGAEVKKPGASVKVSCKVSGYTFTSYDINWVRQAPGKGLEWMGWIYPGDGSIKYNEKFKGRVTMTVDKSTDTAYMELSSLRSEDTAVYYCARRGEYGNYEGAMDYWGQGTLVTVSS
VL: DIQMTQSPSSLSASVGDRVTITCKASQSVDYDGHSYMNWYQQKPGKAPKLLIYAASNLESGVPSRFSGSGSGTDFTLTISSLQPEDFATYYCQQSDENPLTFGGGTKVEIK
notes: also called humanized G1aggr; humanized antibody G1aggr
Turning to B2, the binding result in test [1] was “no binding”. For the same molecule, the Kd with soluble P-selectin worked out at 31.1 nM.
